Test results from IntAct's records for PubMed 31515488.

B1: Transcription factor 19 (Homo sapiens), Q9Y242 (parent)
chain: MLPCFQLLRIGGGRGGDLYTFHPPAGAGCTYRLGHRADLCDVALRPQQEPGLISGIHAELHAEPRGDDWRVSLEDHSSQGTLVNNVRLPRGHRLELSDGDLLTFGPEGPPGTSPSEFYFMFQQVRVKPQDFAAITIPRSRGEARVGAGFRPMLPSQGAPQRPLSTFSPAPKATLILNSIGSLSKLRPQPLTFSPSWGGPKSLPVPAPPGEMGTTPSAPPQRNRRKSVHRVLAELDDESEPPENPPPVLMEPRKKLRVDKAPLTPTGNRRGRPRKYPVSAPMAPPAVGGGEPCAAPCCCLPQEETVAWVQCDGCDVWFHVACVGCSIQAAREADFRCPGCRAGIQT
partner: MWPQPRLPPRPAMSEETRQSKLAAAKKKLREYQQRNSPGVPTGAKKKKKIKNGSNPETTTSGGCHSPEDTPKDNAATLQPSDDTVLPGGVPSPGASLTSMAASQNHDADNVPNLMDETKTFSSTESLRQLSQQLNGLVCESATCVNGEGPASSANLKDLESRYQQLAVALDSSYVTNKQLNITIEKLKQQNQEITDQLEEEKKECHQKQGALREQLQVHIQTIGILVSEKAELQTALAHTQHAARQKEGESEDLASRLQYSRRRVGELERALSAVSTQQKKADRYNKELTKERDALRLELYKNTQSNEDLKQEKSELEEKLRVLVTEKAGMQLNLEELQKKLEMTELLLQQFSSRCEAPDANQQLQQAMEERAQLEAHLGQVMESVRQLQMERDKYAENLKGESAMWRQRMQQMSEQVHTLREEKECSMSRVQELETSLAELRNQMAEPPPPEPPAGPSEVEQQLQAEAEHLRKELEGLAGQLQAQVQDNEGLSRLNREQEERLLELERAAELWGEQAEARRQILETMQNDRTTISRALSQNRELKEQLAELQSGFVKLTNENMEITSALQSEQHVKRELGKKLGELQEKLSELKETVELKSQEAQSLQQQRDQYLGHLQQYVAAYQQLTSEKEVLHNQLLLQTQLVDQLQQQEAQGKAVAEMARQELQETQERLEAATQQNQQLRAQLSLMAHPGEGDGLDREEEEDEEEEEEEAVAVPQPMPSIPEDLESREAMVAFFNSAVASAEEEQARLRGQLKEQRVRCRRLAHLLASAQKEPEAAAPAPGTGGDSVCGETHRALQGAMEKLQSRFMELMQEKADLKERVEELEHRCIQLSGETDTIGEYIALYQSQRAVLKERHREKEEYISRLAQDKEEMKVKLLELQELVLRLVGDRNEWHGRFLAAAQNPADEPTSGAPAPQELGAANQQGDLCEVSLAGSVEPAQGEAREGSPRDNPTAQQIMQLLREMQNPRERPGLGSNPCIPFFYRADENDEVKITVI
B2: Keratin, type II cytoskeletal 6A (Homo sapiens), P02538 (parent)
chain: MASTSTTIRSHSSSRRGFSANSARLPGVSRSGFSSVSVSRSRGSGGLGGACGGAGFGSRSLYGLGGSKRISIGGGSCAISGGYGSRAGGSYGFGGAGSGFGFGGGAGIGFGLGGGAGLAGGFGGPGFPVCPPGGIQEVTVNQSLLTPLNLQIDPTIQRVRAEEREQIKTLNNKFASFIDKVRFLEQQNKVLETKWTLLQEQGTKTVRQNLEPLFEQYINNLRRQLDSIVGERGRLDSELRGMQDLVEDFKNKYEDEINKRTAAENEFVTLKKDVDAAYMNKVELQAKADTLTDEINFLRALYDAELSQMQTHISDTSVVLSMDNNRNLDLDSIIAEVKAQYEEIAQRSRAEAESWYQTKYEELQVTAGRHGDDLRNTKQEIAEINRMIQRLRSEIDHVKKQCANLQAAIADAEQRGEMALKDAKNKLEGLEDALQKAKQDLARLLKEYQELMNVKLALDVEIATYRKLLEGEECRLNGEGVGQVNISVVQSTVSSGYGGASGVGSGLGLGGGSSYSYGSGLGVGGGFSSSSGRAIGGGLSSVGGGSSTIKYTTTSSSSRKSYKH
partner: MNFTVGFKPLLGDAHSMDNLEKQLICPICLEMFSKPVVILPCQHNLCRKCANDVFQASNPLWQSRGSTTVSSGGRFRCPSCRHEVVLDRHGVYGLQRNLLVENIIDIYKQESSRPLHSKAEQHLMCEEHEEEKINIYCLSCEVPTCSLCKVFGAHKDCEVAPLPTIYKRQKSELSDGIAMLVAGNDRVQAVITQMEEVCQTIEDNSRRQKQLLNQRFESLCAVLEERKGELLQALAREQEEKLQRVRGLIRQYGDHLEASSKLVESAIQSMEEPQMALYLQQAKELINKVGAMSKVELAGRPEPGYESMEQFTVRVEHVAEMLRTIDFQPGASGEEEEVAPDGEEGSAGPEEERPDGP
B3: Copper homeostasis protein cutC homolog (Homo sapiens), Q9NTM9 (parent)
chain: MKRQGASSERKRARIPSGKAGAANGFLMEVCVDSVESAVNAERGGADRIELCSGLSEGGTTPSMGVLQVVKQSVQIPVFVMIRPRGGDFLYSDREIEVMKADIRLAKLYGADGLVFGALTEDGHIDKELCMSLMAICRPLPVTFHRAFDMVHDPMAALETLLTLGFERVLTSGCDSSALEGLPLIKRLIEQAKGRIVVMPGGGITDRNLQRILEGSGATEFHCSARSTRDSGMKFRNSSVAMGASLSCSEYSLKVTDVTKVRTLNAIAKNILV
partner: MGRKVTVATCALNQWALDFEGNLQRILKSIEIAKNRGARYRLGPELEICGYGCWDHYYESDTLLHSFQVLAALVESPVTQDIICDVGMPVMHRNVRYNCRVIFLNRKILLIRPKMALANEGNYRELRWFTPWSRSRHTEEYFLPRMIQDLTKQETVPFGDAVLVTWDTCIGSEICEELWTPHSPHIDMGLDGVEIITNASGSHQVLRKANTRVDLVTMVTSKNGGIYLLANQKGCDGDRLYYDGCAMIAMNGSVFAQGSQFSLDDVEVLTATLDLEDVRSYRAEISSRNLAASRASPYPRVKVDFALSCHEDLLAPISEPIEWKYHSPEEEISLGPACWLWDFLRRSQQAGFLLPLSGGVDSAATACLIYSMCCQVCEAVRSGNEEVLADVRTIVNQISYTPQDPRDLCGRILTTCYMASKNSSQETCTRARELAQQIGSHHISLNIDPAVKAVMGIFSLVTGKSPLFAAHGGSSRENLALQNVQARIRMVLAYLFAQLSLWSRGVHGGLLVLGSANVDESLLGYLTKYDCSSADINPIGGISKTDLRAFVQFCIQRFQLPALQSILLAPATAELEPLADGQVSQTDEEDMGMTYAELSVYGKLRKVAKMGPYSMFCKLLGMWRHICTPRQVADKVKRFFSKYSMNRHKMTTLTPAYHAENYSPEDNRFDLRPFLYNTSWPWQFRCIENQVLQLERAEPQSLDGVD
B4: Pre-mRNA-splicing factor SPF27 (Homo sapiens), O75934 (parent)
chain: MAGTGLVAGEVVVDALPYFDQGYEAPGVREAAAALVEEETRRYRPTKNYLSYLTAPDYSAFETDIMRNEFERLAARQPIELLSMKRYELPAPSSGQKNDITAWQECVNNSMAQLEHQAVRIENLELMSQHGCNAWKVYNENLVHMIEHAQKELQKLRKHIQDLNWQRKNMQLTAGSKLREMESNWVSLVSKNYEIERTIVQLENEIYQIKQQHGEANKENIRQDF
partner: B1 partner
B5: Notch homolog 2 N-terminal-like protein A (Homo sapiens), Q7Z3S9 (parent)
chain: MCVTYHNGTGYCKCPEGFLGEYCQHRDPCEKNRCQNGGTCVAQAMLGKATCRCASGFTGEDCQYSTSHPCFVSRPCLNGGTCHMLSRDTYECTCQVGFTGKECQWTDACLSHPCANGSTCTTVANQFSCKCLTGFTGQKCETDVNECDIPGHCQHGGTCLNLPGSYQCQCLQGFTGQYCDSLYVPCAPSPCVNGGTCRQTGDFTFECNCLPETVRRGTELWERDREVWNGKEHDEN
partner: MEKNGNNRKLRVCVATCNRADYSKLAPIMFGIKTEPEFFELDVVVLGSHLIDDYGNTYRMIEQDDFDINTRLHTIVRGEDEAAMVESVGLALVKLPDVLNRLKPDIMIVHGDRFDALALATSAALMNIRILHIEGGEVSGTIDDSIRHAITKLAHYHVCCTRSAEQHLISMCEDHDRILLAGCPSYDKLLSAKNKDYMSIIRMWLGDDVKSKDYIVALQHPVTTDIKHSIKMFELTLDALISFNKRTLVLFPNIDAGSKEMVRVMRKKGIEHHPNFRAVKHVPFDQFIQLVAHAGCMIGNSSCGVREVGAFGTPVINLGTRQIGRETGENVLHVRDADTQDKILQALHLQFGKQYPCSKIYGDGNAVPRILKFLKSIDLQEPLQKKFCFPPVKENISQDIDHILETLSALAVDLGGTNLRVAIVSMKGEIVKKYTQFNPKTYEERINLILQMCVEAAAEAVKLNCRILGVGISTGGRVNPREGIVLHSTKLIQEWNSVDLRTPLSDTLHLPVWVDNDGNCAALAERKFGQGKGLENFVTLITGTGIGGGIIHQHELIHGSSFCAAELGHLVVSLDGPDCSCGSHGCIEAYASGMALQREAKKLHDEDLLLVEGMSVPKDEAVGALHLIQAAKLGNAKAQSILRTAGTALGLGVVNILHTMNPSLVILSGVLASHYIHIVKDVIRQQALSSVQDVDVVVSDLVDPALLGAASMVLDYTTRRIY

Variants of: B1
Settings: with goga2_human GOLGA2, Q08379

Variant	effect of a mutation on the interaction
A279V	with no effect

Variants of: B2
Settings: with tri54_human TRIM54, Q9BYV2

Variant	effect of a mutation on the interaction
A335T	with no effect
R559G	with no effect
V523F	with no effect
T552S	with no effect
L210M	with no effect
R415H	with no effect

Variants of: B3
Settings: with nade_human NADSYN1, Q6IA69

Variant	effect of a mutation on the interaction
P77L	disrupting interaction strength

Variants of: B4
Settings: with goga2_human GOLGA2, Q08379

Variant	effect of a mutation on the interaction
N139S	disrupting interaction strength

Variants of: B5
Settings: with glcne_human GNE

Variant	effect of a mutation on the interaction
R74Q	with no effect
A115T	with no effect
